In patent US12209135B2, “Anti-CD45 antibodies and conjugates thereof” (priority 2019, dated 2025):

Legend:
human CD45 ectodomain = target: T1, human CD45 ectodomain (Homo sapiens, UniProt P08575); test: Biolayer interferometry (BLI, Octet) binding of immobilized IgG to purified CD45 ectodomain; conditions: Table 2, Human CD45
T1 construct: purified human, rhesus or cynomolgus CD45 ectodomain
T1 sequence (P08575 26-577): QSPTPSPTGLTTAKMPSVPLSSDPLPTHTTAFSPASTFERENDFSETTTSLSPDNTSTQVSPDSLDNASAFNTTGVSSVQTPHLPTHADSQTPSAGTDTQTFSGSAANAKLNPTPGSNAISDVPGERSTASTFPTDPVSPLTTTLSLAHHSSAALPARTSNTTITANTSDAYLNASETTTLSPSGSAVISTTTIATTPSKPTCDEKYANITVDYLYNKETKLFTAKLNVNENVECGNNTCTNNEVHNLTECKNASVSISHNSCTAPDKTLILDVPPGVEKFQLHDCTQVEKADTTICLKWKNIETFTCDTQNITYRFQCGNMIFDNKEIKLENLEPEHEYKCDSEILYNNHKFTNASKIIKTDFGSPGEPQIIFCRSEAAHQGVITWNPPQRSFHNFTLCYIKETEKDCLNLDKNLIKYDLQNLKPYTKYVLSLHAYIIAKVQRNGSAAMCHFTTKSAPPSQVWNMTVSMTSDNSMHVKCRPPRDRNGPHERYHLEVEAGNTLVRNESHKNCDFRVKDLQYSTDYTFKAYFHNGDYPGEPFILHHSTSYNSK
Method: (§1) Antibody binding studies were performed at 25° C. in 1×PBS supplemented with 0.1% w/v bovine serum albumin with a Pall ForteBio Octet Red96 using biolayer interferometry (BLI).
(§2) The apparent monovalent affinity (KD), apparent association rate (KON), and apparent dissociation rate (KOFF) were determined by local full fitting with a 1:1 binding model as calculated by ForteBio data analysis software version 10 of each IgG to purified human, cynomolgus or rhesus CD45 ectodomain. […] Binding was confirmed using
Briefly, antibody binding studies were performed at 25° C. in 1×PBS supplemented with 0.1% w/v bovine serum albumin with a PALL FORTEBIO OCTET RED96 using biolayer interferometry (BLI). Each purified antibody was immobilized onto anti-human Fc biosensors (AHQ; PALL FORTEBIO 18-5001) and incubated with 100 nM of purified human or 300 nM of cynomolgus CD45 ectodomain.
(§3) The apparent monovalent affinity (KD), apparent association rate (KON), and apparent dissociation rate (KDIS or KOFF) were determined by local full fitting with a 1:1 binding model as calculated by FORTEBIO data analysis software version 10. […] Each of the selected humanized antibodies AbA, AbB, and AbC was able to cross react with human and cynomolgus CD45.

[1] = test system: cynomolgus CD45 ectodomain; test: as above; conditions: Table 2, Cynomolgus CD45
Sequence of cynomolgus CD45 ectodomain (as listed by the source): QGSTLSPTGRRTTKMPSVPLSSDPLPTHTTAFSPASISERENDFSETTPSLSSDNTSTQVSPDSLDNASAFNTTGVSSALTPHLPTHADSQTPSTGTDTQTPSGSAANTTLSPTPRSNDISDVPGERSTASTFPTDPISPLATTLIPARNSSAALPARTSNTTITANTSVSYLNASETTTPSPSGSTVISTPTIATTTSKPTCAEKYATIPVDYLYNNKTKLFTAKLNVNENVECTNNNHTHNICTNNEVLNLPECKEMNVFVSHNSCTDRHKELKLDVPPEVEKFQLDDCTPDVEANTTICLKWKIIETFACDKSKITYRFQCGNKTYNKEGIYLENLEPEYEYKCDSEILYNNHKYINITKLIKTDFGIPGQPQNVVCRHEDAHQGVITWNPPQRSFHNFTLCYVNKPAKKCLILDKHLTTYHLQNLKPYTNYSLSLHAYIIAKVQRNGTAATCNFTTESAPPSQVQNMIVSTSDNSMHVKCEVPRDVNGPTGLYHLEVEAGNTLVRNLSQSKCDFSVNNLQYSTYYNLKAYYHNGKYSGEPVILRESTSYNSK
Method: as §1, §2
Briefly, antibody binding studies were performed at 25° C. in 1×PBS supplemented with 0.1% w/v bovine serum albumin with a PALL FORTEBIO OCTET RED96 using biolayer interferometry (BLI). […]
as §3

rhesus CD45 ectodomain = target: T2, rhesus CD45 ectodomain (Macaca mulatta, UniProt A0A1D5R142); test: as above; conditions: Table 2, Rhesus CD45
T2 construct: purified human, rhesus or cynomolgus CD45 ectodomain
T2 sequence (A0A1D5R142 26-581): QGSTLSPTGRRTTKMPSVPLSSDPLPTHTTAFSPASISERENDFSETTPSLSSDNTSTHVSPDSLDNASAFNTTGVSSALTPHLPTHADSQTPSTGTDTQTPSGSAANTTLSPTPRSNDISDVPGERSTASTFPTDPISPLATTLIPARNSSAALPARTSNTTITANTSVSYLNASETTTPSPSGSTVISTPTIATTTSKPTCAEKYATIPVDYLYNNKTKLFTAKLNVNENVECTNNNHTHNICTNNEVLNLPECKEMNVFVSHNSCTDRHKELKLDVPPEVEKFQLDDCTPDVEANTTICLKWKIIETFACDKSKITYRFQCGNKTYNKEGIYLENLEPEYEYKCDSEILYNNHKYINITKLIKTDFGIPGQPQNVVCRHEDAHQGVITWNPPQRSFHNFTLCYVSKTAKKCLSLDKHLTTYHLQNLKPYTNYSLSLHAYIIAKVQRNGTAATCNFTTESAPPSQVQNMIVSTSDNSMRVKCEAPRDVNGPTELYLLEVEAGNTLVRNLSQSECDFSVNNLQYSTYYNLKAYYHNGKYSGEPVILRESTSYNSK
Method: as §1
as §2, with “using […]” for “using”

[2] = Two-week thermal / pH stress stability by HIC and peptide mapping; type: physicochemical; conditions: 4° C., 25° C., 40° C. for 15 days; high pH treatment
Method: A two-week stability assay was performed by incubating Ab3 and Ab4 at 4° C., 25° C., and 40° C. for 15 days, after which the antibodies were analyzed by […] (HIC). Briefly, 25 micrograms of the indicated antibody were injected onto a Tosoh TSKgel Phenyl-5PW 7.5 mm ID×7.5 cm 10-micron column (Catalog #07573) on a Waters ARC HPLC/UPLC system. […] This hydrophilic pre-peak was indicative of a potential site of post-translational modification (e.g., oxidation or deamidation). Peptide mapping was subsequently performed to identify which amino acids were modified in each antibody upon exposure to stress (high pH, low pH, and oxidative stress). The peptide mapping analysis identified a potential site of deamidation at an asparagine in CDR-L1 (N30 position) in response to high pH conditions (e.g., pH 8 or greater).
Accordingly, variants of Ab3 and Ab4 were generated in which the asparagine in CDR-L1 (e.g., at position 30B) was substituted with a serine. The resulting antibodies were named Ab7 and Ab5 respectively.

B1: Ab4: affinity matured human anti-CD45 IgG derived from Ab1; VH SEQ ID NO:31, VL SEQ ID NO:35 (antibody, V domains shown)
VH: EVQLVESGGGLVQPGGSLRLSCAASGFTFEAYSMNWVRQAPGKGLEWVSYISLSGATIHYADSVKGRFTISRDNAKNSLYLQMNSLRAEDTAVYYCARGGQYYYTSSDYGEVAFDIWGQGTMVTVSS
VL: DIVMTQSPLSLPVTPGEPASISCRSSQSLVSNGYNYLDWYLQKPGQSPQLLIYFGSSRASGVPDRFSGSGSGTDFTLKISRVEAEDVGVYYCMQRRRTPWSFGGGTKVEIK
Human CD45 ectodomain
  Kdis: 3.28e-06 s⁻¹
  Kon: 236000 M⁻¹ s⁻¹
[1]
  Kdis: 7.89e-05 s⁻¹
  Kon: 110000 M⁻¹ s⁻¹
[1]; 50 nM antigen (Ab1: 300 nM)
  Kd: 0.721 nM
Rhesus CD45 ectodomain
  Kdis: 0.000102 s⁻¹
  Kon: 118000 M⁻¹ s⁻¹
Rhesus CD45 ectodomain; 50 nM antigen (Ab1: 300 nM)
  Kd: 0.867 nM
[2]
  HIC hydrophilic pre-peak (deamidated species): hydrophilic pre-peak that increased as a function of thermal stress
